Where a chain is given by its changes, count along the chain named.

The chains are these.
T1: HuCDCP1-C (human, UniProt Q9H5V8 30-667)
T1 construct: range 30-667; expressed in HEK-293T, purified by Fc/his tag; also called human CDCP1-C; full-length extracellular domain of human CDCP1; not shown: Fc or his tag
T1 sequence (looked up): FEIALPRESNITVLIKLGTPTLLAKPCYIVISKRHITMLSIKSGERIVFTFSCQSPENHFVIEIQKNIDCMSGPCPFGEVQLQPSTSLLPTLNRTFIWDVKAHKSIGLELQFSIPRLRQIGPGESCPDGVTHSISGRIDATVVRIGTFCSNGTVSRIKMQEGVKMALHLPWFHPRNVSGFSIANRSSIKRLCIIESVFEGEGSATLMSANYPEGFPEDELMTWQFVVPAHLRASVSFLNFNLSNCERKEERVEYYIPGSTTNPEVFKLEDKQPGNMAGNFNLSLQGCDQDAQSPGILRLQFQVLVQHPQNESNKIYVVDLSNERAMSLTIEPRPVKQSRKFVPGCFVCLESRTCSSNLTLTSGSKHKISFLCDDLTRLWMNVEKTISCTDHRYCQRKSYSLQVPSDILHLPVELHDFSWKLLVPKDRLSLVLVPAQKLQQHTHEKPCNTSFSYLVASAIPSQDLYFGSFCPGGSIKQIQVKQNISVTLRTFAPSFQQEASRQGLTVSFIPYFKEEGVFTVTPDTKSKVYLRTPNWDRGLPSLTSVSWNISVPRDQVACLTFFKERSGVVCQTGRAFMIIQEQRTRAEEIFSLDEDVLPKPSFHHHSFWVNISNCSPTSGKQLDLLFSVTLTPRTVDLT

B1: 1CP-126 (antibody, human IgG1, kappa, V domains shown)
VH: QVQLVQSGAEVKKPGASVKVSCKASGYNFISYWLHWVRQAPGQGLEWMGGIYPGNTDTTYNQKFKGRVTMTADTSTSTAYMELSSLRSEDTAVYYCIRYDYDRGMDYWGQGTLVTVSS
VL: DIQMTQSPSSLSASVGDRVTITCRASEDIYYRLAWYQQKPGKAPKLLISGATALETGVPSRFSGSGSGKDYTFTISSLQPEDIATYYCQHYWNIPWTFGQGTKVEIKR
notes: humanized 3C11, human IgG1 kappa
B2: 1CP-133 (antibody, human IgG1, kappa, V domains shown)
VH: B1 VH with A79V
VL: B1 VL with K42N, F73L
notes: as for B1
B3: 1CP-135 (antibody, human IgG1, kappa, V domains shown)
VH: B1 VH with M70V, D73V, A79V
VL: B1 VL with K42N, F73L
notes: as for B1
B4: 1CP-134 (antibody, human IgG1, kappa, V domains shown)
VH: B1 VH
VL: B1 VL with K42N, F73L
notes: as for B1
B5: 1CP-132 (antibody, human IgG1, kappa, V domains shown)
VH: B1 VH with A72R, A79V
VL: B1 VL with K42N, F73L
notes: as for B1
B6: 1CP-127 (antibody, human IgG1, kappa, V domains shown)
VH: B1 VH with M70V, D73V, A79V
VL: B1 VL
notes: as for B1
B7: 1CP-131 (antibody, human IgG1, kappa, V domains shown)
VH: B1 VH with M70V, D73V, A79V
VL: B1 VL with F73L
notes: as for B1
B8: 1CP-112 (antibody, human IgG1, kappa, V domains shown)
VH: QVQLVQSGSELKKPGASVKVSCKASGYTLTDFSMHWVRQAPGQGLEWMGWINTETGAPTYADDFKGRFVFSLDTSVSTAYLQISSLKAEDTAVYYCSRGRDYDPHFDYWGQGTLVTVSS
VL: EIVLTQSPATLSLSPGERATLSCRASQSISDFLHWYQQKPGQAPRLLIKYASQSISGIPARFSGSGPGSDFTLTISSVEPEDFAVYYCQSAHSFPYTFGQGTKLEIKR
notes: humanized 8E5, human IgG1 kappa
B9: 1CP-123 (antibody, human IgG1, kappa, V domains shown)
VH: B8 VH with V5Q, A16E, V20L, E46K, T78M, A88S
VL: B8 VL with P40S, A43S, P67S
notes: as for B8
B10: 1CP-120 (antibody, human IgG1, kappa, V domains shown)
VH: B8 VH
VL: B8 VL with P40S, A43S, P67S
notes: as for B8
B11: 1CP-122 (antibody, human IgG1, kappa, V domains shown)
VH: B8 VH with A16E, F70L, A88S
VL: B8 VL with P40S, A43S, P67S
notes: as for B8
B12: 1CP-118 (antibody, human IgG1, kappa, V domains shown)
VH: B8 VH with A16E, F70L, A88S
VL: B8 VL with A43S, P67S
notes: as for B8
B13: 1CP-119 (antibody, human IgG1, kappa, V domains shown)
VH: B8 VH with V5Q, A16E, V20L, E46K, T78M, A88S
VL: B8 VL with A43S, P67S
notes: as for B8
B14: 1CP-113 (antibody, human IgG1, kappa, V domains shown)
VH: B8 VH with F70L
VL: B8 VL
notes: as for B8
B15: 1CP-114 (antibody, human IgG1, kappa, V domains shown)
VH: B8 VH with A16E, F70L, A88S
VL: B8 VL
notes: as for B8
B16: 1CP-116 (antibody, human IgG1, kappa, V domains shown)
VH: B8 VH
VL: B8 VL with A43S, P67S
notes: as for B8
B17: 1CP-156 (antibody, human IgG1, kappa, V domains shown)
VH: EVQLVESGGGLVQPGRSLRLSCTTSGLTFTHYHMSWVRQAPGKGLEWVAIIRNKAYGYTTDYSASVRGRFTISRDDSKSILYLQMNSLKTEDTAVYYCVREGGYGYDGTFAYWGQGTLVTVSS
VL: DIQMTQSPSSLSASVGDRVTITCRASESVDNYGISFMNWFQQKPGQPPKLLIYAASNQGSGVPSRFSGSGSGTDFTLTISSMQPEDFATYYCQQSKEVPRTFGGGTKVEIKR
notes: humanized 8C9, human IgG1 kappa
B18: 1CP-155 (antibody, human IgG1, kappa, V domains shown)
VH: B17 VH with T24A, V37F
VL: B17 VL
notes: as for B17
B19: 1CP-159 (antibody, human IgG1, kappa, V domains shown)
VH: B17 VH with T24A, V37F
VL: B17 VL with Y91F
notes: as for B17
B20: 1CP-154 (antibody, human IgG1, kappa, V domains shown)
VH: B17 VH with A40P, G44A, L45P
VL: B17 VL with P47A
notes: as for B17
B21: 1CP-160 (antibody, human IgG1, kappa, V domains shown)
VH: B17 VH
VL: B17 VL with Y91F
notes: as for B17
B22: 1CP-153 (antibody, human IgG1, kappa, V domains shown)
VH: B17 VH with L45P
VL: B17 VL with P47A
notes: as for B17
B23: 1CP-161 (antibody, human IgG1, kappa, V domains shown)
VH: B17 VH with L45P
VL: B17 VL with Y91F
notes: as for B17
B24: 1CP-151 (antibody, human IgG1, kappa, V domains shown)
VH: B17 VH with T24A, V37F
VL: B17 VL with P47A
notes: as for B17
B25: 1CP-158 (antibody, human IgG1, kappa, V domains shown)
VH: B17 VH with A40P, G44A, L45P
VL: B17 VL
notes: as for B17
B26: 1CP-162 (antibody, human IgG1, kappa, V domains shown)
VH: B17 VH with A40P, G44A, L45P
VL: B17 VL with Y91F
notes: as for B17

For the assay, the target named is T1, HuCDCP1-C. Description: SPR (Caterra), antigen immobilized. The procedure: The humanized anti-CDCP1 antibodies obtained from Example 11 were subjected to gene cloning, constructed into pTT5 expression vector for a small amount of expression in CHO cells (Expi-CHOS: Gibco A29127), and purified with an Fc affinity column (AT Protein A Diamond Plus. No. AA402312). Antibody purity was analyzed by HPLC and determined by Nanodrop. High-throughput affinity assay was carried out for a small amount of antibodies by Caterra.
Broadly, the Kd is the equilibrium constant for the complex coming apart. A lower Kd goes with a tighter complex. Broadly, the koff is a measure of how fast the partners let go of each other. One may read the kon as the second-order rate constant of association. A lower kon goes with slow association. B1 gave a Kd of 6.78 nM, a koff of 0.00143 s⁻¹ and a kon of 211000 M⁻¹ s⁻¹.

Consider B2, for which the Kd was ≤ 0.0546 nM, the koff is ≤ 1e-05 s⁻¹ and the kon was 183000 M⁻¹ s⁻¹.

B3 returned a Kd of 4.8 nM, a koff of 0.0012 s⁻¹ and a kon of 249000 M⁻¹ s⁻¹.

Molecule B4 came in with a Kd of 10.5 nM, a koff of 0.00202 s⁻¹ and a kon of 193000 M⁻¹ s⁻¹.

On to B5, for which the Kd is ≤ 0.0713 nM, the koff is ≤ 1e-05 s⁻¹ and the kon came to 140000 M⁻¹ s⁻¹.

B6 returned a Kd of 9.66 nM, a koff of 0.00198 s⁻¹ and a kon of 205000 M⁻¹ s⁻¹.

Consider B7, for which the Kd was found to be 10.5 nM, the koff is 0.002 s⁻¹ and the kon turned out to be 191000 M⁻¹ s⁻¹.

In turn, B8 came in with a Kd of 0.368 nM, a koff of 5e-05 s⁻¹ and a kon of 136000 M⁻¹ s⁻¹.

Molecule B9 had a dissociation constant Kd of 11.4 nM, a koff of 0.00227 s⁻¹ and an on-rate (kon) of 199000 M⁻¹ s⁻¹.

On to B10, for which the Kd stood at 0.122 nM, the koff turned out to be 1.7e-05 s⁻¹ and the kon was 139000 M⁻¹ s⁻¹.

Molecule B11 had a Kd of 12.5 nM, a koff of 0.00209 s⁻¹ and a kon of 167000 M⁻¹ s⁻¹.

For the molecule B12, the affinity, expressed as Kd, was 13.4 nM; the koff is 0.00225 s⁻¹; the kon is 168000 M⁻¹ s⁻¹.

B13: the Kd came to 5.51 nM, the koff came to 0.00124 s⁻¹ and the kon was determined as 226000 M⁻¹ s⁻¹.

In turn, B14 gave a Kd of 0.411 nM, a koff of 5.9e-05 s⁻¹ and a kon of 143000 M⁻¹ s⁻¹.

B15: the Kd was determined as 15.2 nM, the koff was 0.00246 s⁻¹ and the kon was determined as 161000 M⁻¹ s⁻¹.

Regarding B16, the dissociation constant Kd came to 0.359 nM, the koff stood at 4.59e-05 s⁻¹ and the kon came out at 128000 M⁻¹ s⁻¹.

As for B17, the affinity, expressed as Kd, was 3.6 nM; the koff turned out to be 0.000441 s⁻¹; the kon was 123000 M⁻¹ s⁻¹.

On to B18, for which binding was put at a Kd of 36.6 nM, the koff is 0.000579 s⁻¹ and the kon was 15800 M⁻¹ s⁻¹.

On to B19, for which the Kd worked out at 42.5 nM, the koff is 0.000767 s⁻¹ and the kon turned out to be 18000 M⁻¹ s⁻¹.

In turn, B20 returned a Kd of 2.92 nM, a koff of 0.000346 s⁻¹ and a kon of 118000 M⁻¹ s⁻¹.

As to B21, the Kd was found to be 3.8 nM, the koff stood at 0.00042 s⁻¹ and the kon amounted to 110000 M⁻¹ s⁻¹.

For the molecule B22, the Kd came out at 3.58 nM, the koff is 0.000388 s⁻¹ and the kon was determined as 108000 M⁻¹ s⁻¹.

As for B23, the Kd was 3.21 nM, the koff came to 0.000365 s⁻¹ and the kon was 114000 M⁻¹ s⁻¹.

B24 had a Kd of 19.1 nM, a koff of 0.00302 s⁻¹ and a kon of 158000 M⁻¹ s⁻¹.

With B25, binding was put at a Kd of 2.96 nM, the dissociation rate constant (koff) was determined as 0.000321 s⁻¹ and the kon was found to be 109000 M⁻¹ s⁻¹.

Consider B26, for which the dissociation constant Kd amounted to 2.7 nM, the koff came out at 0.000305 s⁻¹ and the kon came out at 113000 M⁻¹ s⁻¹.
